Assay results taken from the nanobody polyreactivity screen of Harvey et al. (2022).

Assay: yeast display, Sf9 membrane polyspecificity reagent, FACS + sequencing; frameworks hold sequencing errors
Procedure, shortened: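 Sorting gates, low and high (top ~1%), were placed on anti-HA fluorescence to track expression and on streptavidin fluorescence to track reagent binding. A clone's polyreactivity label is taken from the gate it came out of. The reagent was 10% biotinylated, detergent-solubilized Sf9 membrane, applied for 1 hour at 4 °C to galactose-induced yeast display cells.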

Sequence | polyreactivity (PSR sort gate)
QVQLVESGGGLVQPGGSLRLSCAASGRTFGDYVMGWDREAPGKERELVAVITYRGGSTYYADSVKGRFTISRDNAKNTVHLQMNSLKPEDTAVYYCAAAARAGLKRYYYWGQGTQVTVSS | high polyreactivity
QVQLVESGGGLVQPGGSLRLSCAASGRTFRTNAMGWSRQEPGKERELVAAISTGGGITNYADSVKGRFTISRDNAKNTVYLQMNCLKPEDTAVYYCAARLAYNAIGYYYWGQGTQVTVSS | low polyreactivity
QVQLVESGGGLVQPGGSLRLSCAASGRTFTGYTMGWYRQAPGKERELVAAIRWSGDRTYYADSVKGRFTISRDNAKNTVYLQMNSLKPEDTAVYYCAAARYVYGKFVGFDYWGQGTQVNVSS | high polyreactivity
QVQLVESGGGLVQPGGSLRLSCAASGRTFVPYAMGWYRQAPGKEREFVAVITWGGGSTYYADSVKGRFTISRDNAKNTVYLQMNSLKPEDTAVYYCDARVYYHYDYWGQGTQVTVSS | high polyreactivity
QVQLVESGGGLVQPGGSLRLSCAASGSIFTPNAMGWYRPAPGKERELVAAISSSSDRTYYADSVKGRFTISRDNAKNTVYLQMNSLKPEDTAVYYCAALSKTRGGYWGHGTQVTVSS | high polyreactivity
QVQLVESGGGLVQPGGSLRLSCAASGSTFIEYSMGWYRQAPGKERELVATIRGTGSTNYADSVKGRFTISRDNAKNTVYLQMNSLKPEDTAVYYCMKKPDPRWYYWGDYWGQGTQVTVSS | low polyreactivity
QVQLVESGGGLVQSGGSIRLSCAASGSTFDHYTMGWYRQAPGKERELVAAINRIGDSTYYADSVKGRFTISRDNAKNTVYLQMNSLKPEDTAVYDCAARHVPRFNKYGYWGQGTQVNVSS | high polyreactivity
QVQLVESGGGLVQSGGSLRLSCAASGFIFGEYTMGWNRQAPGKEREFVAAISWSGGSTSYADSVKGRFTISRDNAKNTVYLQMNSLKPEDTAVYYCAARYGSDYDYWGQGTQVTVSS | low polyreactivity
QVQLVESGGGLVQSGGSLRLSCAASGFIFRWYAMGWYRQAPGKERELVASIDWSGTRTNYADSVKGRFTISRDNAKNTVYLQMNSLKPEDTAVYYCNAVPTSLGETDYDYWGQGTQVTVSS | low polyreactivity
QVQLVESGGGLVQSGGSLRLSCAASGFTFGGYAMGWYRQAPAKERELVAAISQSGGRTYYADSVKGRFTISRDNAKITVYLQMNSLKPEDTAVYYCAKPSTTYYQRGDYWGQGTQVTVSS | high polyreactivity
QVQLVESGGGLVQSGGSLRLSCAASGFTFPNNAMGWYRLAPGKERELVAAITWSGGSTYADSVKGRFTISRDNAKNTVYLQMNSLKPEETAVYFCNTRGTYLSKTLPSAYDYWGQGTQVTVSS | low polyreactivity
QVQLVESGGGLVQSGGSLRLSCAASGFTFSRYAMGWYRQAPGKERELVAAINWSGGSTYYADSVKGRFTISRDNAKNTVYLQMNSLKPEDTAVYSCAKPAGGSGYDSWGQGTQVTVSS | high polyreactivity
QVQLVESGGGLVQSGGSLRLSCAASGIKFYYNARGWYRPAPGKERELVARITWRAGSTYYADSVKGRFTISRDNAKNTVYLQMNSLKPEDTAVYYCNADHDGLGYYFWGQGTQVTVSS | high polyreactivity
QVQLVESGGGLVQSGGSLRLSCAASGITTRTYAMGWYRQAPGKDRELVAAISDSGDRTYYADSVKGRFTISRDNAKNTVYLQMNSLKPEDTAVYYCAVDAPGPRGEYWGQGTKVTVSS | low polyreactivity
QVQLVESGGGLVQSGGSLRLSCAASGRIFGKYAMGWYRQAPGKERELVARISFSGGTTYYADSVKGRFTISRDNAKNTVYLQMYSLKPEDTAVYYCSARSVWSQRWAYDSWGQGTQVTVSS | high polyreactivity
QVQLVESGGGLVQSGGSLRLSCAASGRTFYHYAMGWYRQAHGKERELVATITRNGGITYYADSVKGRFTISRDNAKNTVYLQMNSLKPEDTAVYYCIKRWGGPIQFDYWGQGTEVTVSS | low polyreactivity
QVQLVESGGGLVQSGGSLRLSCAASGRTFYYYTMGWYRPAPGKVRELVAAIYRVGSTYYADSVKGRFTISRDNAKNTVYLQMNSLKPEDTADYYCNAVLRFGWYWVDYWGQGTQVTVSS | high polyreactivity
QVQLVESGGGLVQSGGSLRLSCAASGSIFSAYAMGWYRQAPGKEREFVAAITRRGGNTYYADSVKGRFTISRDNAQNTVYLQMNSLKPEDSAVYYCAADAGGGPFDYWGQGTQVSVSS | low polyreactivity
QVQLVESGGGLVQSGGSLRLSCAASGSIFSYYAMGWYRQAPGKEREFVAPHSRSGGSTYYADSVKGRFTISRDNGKNTVYLQMKSLKPEDTAVYYCNAYSYSDAGDDGDYWGQGTQVTVSS | low polyreactivity
QVQLVESGGGLVQSGGSLRLSCAASGSILYGYAMGWYRQAPGKERELVAAIRWTGGSTYYADSVKGRFTISRDNAKNTVYLQMNSLKPEDTAVYFCAAEYNLRTYWGDYWGQGTQVTVSS | low polyreactivity
QVQLVESGGGLVQSGGSLRLSCAASGSTFDYNAMGWYRQPPGKERELVAAINSGASTYYADSVKGRFTISRDNAKNTVYLLMNSLKPEDTAVYYCAKDYLYIGDYWGQGTQVTVSS | low polyreactivity
QVQLVESGGGLVQSGGSLRLSCAASGSTFHTYAMGWYRQAPGKERELFASIRTSGGSTNADSVKGRFTISRDNAKNTVYLQMNSLNPEDTAVYYCAAYYFYGLYDAYYYWGQGTEVTVSS | low polyreactivity

Sequence | polyreactivity (PSR sort gate)
QVQLVESGGGLVQSGGSLRLSCAASGSTFLWYAMGWYRPAPGKERELVASISRGGGTDYADSVKGRFTISRDNAKKTVYLQMNSLIPEDTAVYYCAATGVYRYDHWGQGTQVTVSS | low polyreactivity
QVQLVESGGGLVQSGGSLRLSCAASGSTFNGYAMGWYRQAPGKERELVAGITGSGGSTYYADSVKGRFTISRDNAKNTVYLQMNSLKPEDTAVYYCKAVHWGGSYWGLDYWGQGTQVTVSS | low polyreactivity
QVQLVESGGGLVQSGGSLRLSCAASGSTSINYAMGWYRQAPGKERELVATISRGGSTTYADSVKGRFTISRDNAKNTVYLQMNSLKPEATAVYYCAKDRYPADEDYWGQGTQVTVSS | low polyreactivity
QVQLVESGGGLVQSGGSLRLSCAASGYIFGYYAMGWYRQAPGKERELVAAITGTDDTNYADSVKGRFTISRDNAKNTVYLQMNSLIPEDTAVYYCAAYSWWNEYDYWGQGTQVTVSS | high polyreactivity
QVQLVESGGGLVQSGGSLRLSCAPSGRIFAGYTMGCYRQAPGKERELVAAISWSGGRTYYADSVKGRFTISRDNAKNTVYLQMNSLKPEDTAVYYCAVGFRTLHGDYGYWGQGTQVTVSS | high polyreactivity
QVQLVESGGGLVQSGGSLRLSCCACGRIFYSYSMGRYRQAPGKDRELVAANTCRGGSTYYADSVKGRFTISRDNAKNPVYLQMIRLKPEDTAVSYCATSSHTPYYSYIVERIHYDYWGQGTQVTVSS | high polyreactivity
QVQLVESGGGLVQSGGSLRLSCDPSGSIFSHNAMGWYRQAPGKERELVAAITASSGSTYYADSVKGRFTISRDNAKNTVYLQMNSLKPEVNAVYFCARVSRKRHQQDGKYGYWGQGTQVTVSS | high polyreactivity
QVQLVESGGGLVQSGGSLRLTCAASGRTFPYYAMGWYRQAPGKERELVAAISRRGGSTYYADSVKGRFTISRDNAMNTVYLQMNSLKPEDTAVYYCAAAGGVSGGEYDYWGQGTQVTVSS | high polyreactivity
QVQLVESGGGLVQSGVSLRLSCAASGIIFFSNTMGWYRQAPGKEREFVAAITWSTGNTYYADSVKGRFTISRDNAKNTVYLQMNSLKPEDTAVYYCYAEFLVITWYGGVEFDYWGQGTQVTVSS | low polyreactivity
QVQLVESGGGLVQVGGSLRLSCAASGGIFSGNAMGWSRPAPGKERELVAGITNGGRTTYADSVKGRFTISRDNAKNTVYLQMNSLKPEDTAVYYCNVYVSAGEEDEYWGQGTQVTVSS | low polyreactivity
QVQLVESGGGLVQVGGSLRLSCAASGITLSYYAMGWYRQAPGKEREFVASITVSRTSTYYADSVKGRFTISRDNAKNTVYLQMNSLKPEDTAVYYCAAYAYQYRFSGYGYWGQGTQVTVSS | low polyreactivity
QVQLVESGGGLVQVGGSLRLSCAASGITLTYYALGWYRQAPGKERELVAAIDSGGTTHYADSVKGRFTISRDNAKNTVYLQMNSLKPEDTAVYYCAARPTRGHWWYGYWGQGTQVTVSS | low polyreactivity
QVQLVESGGGLVQVGGSLRLSCAASGRTFWWYAMGWYRQAPGKERELVAAITRSGGSTYYADSVKGRFTISRDNAKYTVYLQMNSLKQEDTAVYYCAASHYGLLEYWGQGTQVTVSS | low polyreactivity
QVQLVESGGGLVQVGGSLRLSCAASGRTFYRYAMGWYRQAPGKERELVATINWTSGSTYYADSVKGRFTISRDKAKNTVYLQMNSLKPEDTAVYYCATVPHGKDTFGYWGQGTQVTVSS | high polyreactivity
QVQLVESGGGLVRAGGSLRLSCAASGRNKDNVMGWYRQAPGKERELVAAITRSAGRTYYADSVKGRFTISRDNAKNTVYLQMNSLIPEDTAVYYFATADAHYSAAGEDYWGQGTQVTVSS | low polyreactivity
QVQLVESGGGLVRAGGSLRLSCAASGSTFDINAMGWYRQAPGKERELVASITFSGGSTYYADSVKGRFTISRDNAKNTVYLQMNSLKPEDTAVYYCNKDEPQFSSYLYSFYPGYDYWGQGTQVTVSS | low polyreactivity
QVQLVESGGGLVRARGSLRLSWAASGNTFSSNAMGWYRQAPGKERELVAGITKSGGRTYYADSVKGSFTISRDNAKNTVYLQMNSLKPEDTAVYYCNRRACPYSIPYYYWGQGTQVTVSS | high polyreactivity
QVQLVESGGGRDQAGGSLRLSCAASGLTSYSNAMGWFRQAPGKERELVAAISRSGGSTYYADSVKGRFTISRDTAKNSVYLQMISLKAEDSAFYYCAASIWVYLLGGGYSDYDYWGQGTQETVSS | low polyreactivity
QVQLVESGGGRVQAGGRIRLRCAASGLIFPGYDMGWYSPAPGKERELVAAISDSGANTYYADSVKGRFTISRDNAKNTVYLQMTSLKQEDTAVYYCAADSSWWYGTSFGRFDYWGQGTQVTVSS | low polyreactivity
QVQLVESGGGSVQAGGRLRLSCAASGLIFAGYARGWYRQSPGKERELVAASSTSGGRTYYADSVKGRFTISRDNAKNTVYLQINSLTPEDTAVYYCAAYPVHGKTQELAKEDYWGQGTQVTVSS | high polyreactivity
QVQLVESGGGSVQAGGSLRLICAASGSTFSDYDMGWYRQAPGKERELVAAISIGGRTNYADSVKGRFTISRDNAKNTVYLQMNSLKPEDTAVYDCAADSQSIYAYWPGGGYGYWGQGTQVTLSS | low polyreactivity
